The text below walks through data of article PMC12412624, “Engineered Cas12j‐8 is a Versatile Platform for Multiplexed Genome Modulation in Mammalian Cells”.

Common to all, as to conditions: HEK293T cells; panel 1c (compare within a panel only); scale: mean GFP / mean GFP of wild type, printed, no background subtraction
Data set [1] relates to T1, dCas12j-8 D416R D416R;D369A;E567A;D658A (bacteriophage (metagenome)).
T1 sequence: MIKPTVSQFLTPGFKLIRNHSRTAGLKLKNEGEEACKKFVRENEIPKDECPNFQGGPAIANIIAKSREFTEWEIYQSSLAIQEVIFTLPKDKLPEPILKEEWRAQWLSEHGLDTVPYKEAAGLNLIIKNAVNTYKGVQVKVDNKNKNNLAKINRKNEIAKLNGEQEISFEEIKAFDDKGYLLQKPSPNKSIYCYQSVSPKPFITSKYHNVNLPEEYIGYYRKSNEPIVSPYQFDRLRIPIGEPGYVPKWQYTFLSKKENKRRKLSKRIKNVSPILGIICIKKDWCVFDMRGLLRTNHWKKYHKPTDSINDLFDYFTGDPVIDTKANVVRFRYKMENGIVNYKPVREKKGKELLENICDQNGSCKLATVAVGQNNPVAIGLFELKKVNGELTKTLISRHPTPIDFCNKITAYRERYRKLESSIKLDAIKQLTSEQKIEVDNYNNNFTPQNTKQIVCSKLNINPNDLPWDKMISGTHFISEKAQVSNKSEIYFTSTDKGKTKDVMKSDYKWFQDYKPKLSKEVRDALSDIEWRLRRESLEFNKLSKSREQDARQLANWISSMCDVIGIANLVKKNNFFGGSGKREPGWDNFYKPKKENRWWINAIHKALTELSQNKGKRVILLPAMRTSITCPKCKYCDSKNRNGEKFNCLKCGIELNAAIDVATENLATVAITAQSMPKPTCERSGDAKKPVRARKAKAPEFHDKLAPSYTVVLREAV

Data set [2] concerns T2, dCas12j-8 D403R D403R;D369A;E567A;D658A (bacteriophage (metagenome)).
T2 sequence: T1 sequence with D403R, R416D

For data set [3], the system named is T3, dCas12j-8 E101R E101R;D369A;E567A;D658A (bacteriophage (metagenome)).
T3 sequence: T1 sequence with E101R, R416D

The test system of data set [4] is T4, dCas12j-8 D495R D495R;D369A;E567A;D658A (bacteriophage (metagenome)).
T4 sequence: T1 sequence with R416D, D495R

Substitutions are numbered along the chain they refer to.

For “CUUUCAAGACUAAUAGAUUGCUCCUUACGAGGAGACACUCCCUAUCAGUGAUAGAG / TTNACTCCCTATCAGTGATAGAG / CTCTATCACTGATAGGGAGTNAA [TetO]”, the binding signal in data set [1] amounted to 0.46; in data set [2], 0.365; in data set [3] it was 0.711; in data set [4] it was 1.18.
